Test results reported in doi:10.1101/2024.01.24.577054 (bioRxiv, 2024).

Target: the molecule itself
Test: FRET or BRET

B1: BmrA, homodimeric multi-drug resistance ABC exporter from B. subtilis (His-C-ter-BmrA), labelled with sulfo-Cy3/sulfo-Cy5 (natural protein, UniProt O06967 1-589, looked up)
chain: MPTKKQKSKSKLKPFFALVRRTNPSYGKLAFALALSVVTTLVSLLIPLLTKQLVDGFSMSNLSGTQIGLIALVFFVQAGLSAYATYALNYNGQKIISGLRELLWKKLIKLPVSYFDTNASGETVSRVTNDTMVVKELITTHISGFITGIISVIGSLTILFIMNWKLTLLVLVVVPLAALILVPIGRKMFSISRETQDETARFTGLLNQILPEIRLVKASNAEDVEYGRGKMGISSLFKLGVREAKVQSLVGPLISLVLMAALVAVIGYGGMQVSSGELTAGALVAFILYLFQIIMPMGQITTFFTQLQKSIGATERMIEILAEEEEDTVTGKQIENAHLPIQLDRVSFGYKPDQLILKEVSAVIEAGKVTAIVGPSGGGKTTLFKLLERFYSPTAGTIRLGDEPVDTYSLESWREHIGYVSQESPLMSGTIRENICYGLERDVTDAEIEKAAEMAYALNFIKELPNQFDTEVGERGIMLSGGQRQRIAIARALLRNPSILMLDEATSSLDSQSEKSVQQALEVLMEGRTTIVIAHRLSTVVDADQLLFVEKGEITGRGTHHELMASHGLYRDFAEQQLKMNADLENKAG
modifications: sulfo-Cy3 or sulfo-Cy5 maleimide dye on C436 (the sole Cys residue of each monomer)
B1: binds.
